{
  "source": "paper PMC10622425",
  "binders": {"B1": {"name": "human DHHC20 fused at its C-terminus to a myc-tag (enzyme)", "chain": "TLWRCCQRVVGWVPVLFITFVVVWSYYAYVVELCVFTIFGNEENGKTVVYLVAFHLFFVMFVWSYWMTIFTSPASPSKEFYLSNSEKERYEKEFSQERQQEILRRAARALPIYTTSASKTIRYCEKCQLIKPDRAHHCSACDSCILKMDHHCPWVNNCVGFSNYKFFLLFLLYSLLYCLFVAATVLEYFIKFWTNELTDTRAKFHVLFLFFVSAMFFISVLSLFSYHCWLVGKNRTTIESFRAPTFSYGPDGNGFSLGCSKNWRQVFGDEKKYWLLPIFSSLGDGCSFPTRLVGM"}},
  "target": "M2 protein of human Influenza A virus A/WSN/33 (H1N1), wild type (Influenza A virus A/WSN/33 (H1N1))",
  "experiment": "co-IP",
  "data": [
    {"binder": "B1", "values": [
      {"measurement": "percent of total DHHC20-myc co-precipitated", "value": 1, "unit": "%"}
    ]}
  ]
}
